A short description of data set [1]: Stability at 40° C., purity by SEC. The data set is classed as physicochemical. The note with it: for Purity by SEC, %: mutant antibody storage stability. The method, then:
The purified antibodies were concentrated, and sterile filtration was performed. The purity of the antibodies was determined by size exclusion chromatography (SEC). Specifically, the samples were loaded at 20 μg onto a TSK G3000SWXL column using 100 mM sodium phosphate+100 mM Na2SO4 (pH 7.0) as a running buffer for 30 min. The collected effluent was measured using the Agilent 1220 HPLC system and the data were analyzed using OpenLAB software.
The huF19-LG antibody was tested for stability at 40° C. ELISA (see Example 1.2) and SEC (see Example 1.1) were conducted at 0 weeks (OW), 2 weeks (2W), or 4 weeks (4W) with the results shown as follows:
The activity and purity of the molecule were determined by SEC after storage. See Example 1.5 for the specific procedures.
(In general: In gel filtration, larger molecules generally elute earlier.)

Data set [2] concerns cynomolgus FAP protein expressed on 293T cells. Briefly: Cell binding assay by flow cytometry, 293T-cynomolgus FAP cells. The protocol:
(§1) Whether the humanized antibody of the present disclosure can bind to human FAP protein stably expressed on the surface of 293T cells was determined by a cell binding assay. Firstly, the sequences encoding human FAP protein (NM_004460.2, SEQ ID NO: 31) and cynomolgus FAP (XM_005573320.2, SEQ ID NO: 32) were cloned into expression vector PIRES-puro3 (Clontech, Cat #631619) […]. The vectors were used to transfect 293T cells. […]
(§2) The human FAP antibodies (huF19-LG and sibrotuzumab) were 4-fold serially diluted from a starting concentration of 200 nM to a total of 8 concentrations and added to the cells for co-incubation at 4° C. for 30 min. […] The cells were washed twice with PBS and then resuspended, and finally, fluorescence signals were detected using the […] (BD Bioscience) flow cytometer.
Whether the mutant antibody in the present disclosure can bind to human or cynomolgus FAP protein stably expressed on the surface of 293T cells was determined by a cell binding assay. […] The cells were washed twice with PBS and then resuspended, and finally, fluorescence signals were detected using the […] (BD Bioscience) flow cytometer.
For orientation: In flow cytometry, cells or beads pass a laser one at a time.

For data set [3], the target named is T1, human FAP protein expressed on 293T cells (Homo sapiens, UniProt Q12884).
T1 construct: expressed in transfected cells; host or cells: 293T cells, PIRES-puro3 vector, puromycin selection
T1 sequence (Q12884 1-760): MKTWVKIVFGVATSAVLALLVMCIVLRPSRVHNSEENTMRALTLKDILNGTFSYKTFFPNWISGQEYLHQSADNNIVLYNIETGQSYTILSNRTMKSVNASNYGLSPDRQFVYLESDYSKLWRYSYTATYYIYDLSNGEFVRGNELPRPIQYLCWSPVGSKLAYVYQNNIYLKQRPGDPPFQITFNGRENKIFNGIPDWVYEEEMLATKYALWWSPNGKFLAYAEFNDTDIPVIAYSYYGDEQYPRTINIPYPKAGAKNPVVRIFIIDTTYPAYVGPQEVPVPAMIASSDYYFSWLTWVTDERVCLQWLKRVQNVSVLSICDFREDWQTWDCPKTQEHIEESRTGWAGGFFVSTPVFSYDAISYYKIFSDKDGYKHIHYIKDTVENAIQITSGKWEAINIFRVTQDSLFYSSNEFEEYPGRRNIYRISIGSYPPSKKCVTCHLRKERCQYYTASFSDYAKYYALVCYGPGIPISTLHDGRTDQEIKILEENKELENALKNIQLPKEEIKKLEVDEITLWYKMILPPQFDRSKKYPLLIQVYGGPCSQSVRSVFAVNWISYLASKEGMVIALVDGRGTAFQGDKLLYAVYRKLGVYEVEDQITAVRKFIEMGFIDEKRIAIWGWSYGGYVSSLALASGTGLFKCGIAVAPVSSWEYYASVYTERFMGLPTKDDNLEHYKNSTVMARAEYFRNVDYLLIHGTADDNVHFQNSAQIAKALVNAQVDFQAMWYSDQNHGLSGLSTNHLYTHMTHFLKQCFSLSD
The data set is described as follows: Cell binding assay by flow cytometry, 293T-human FAP cells. The method, then:
as §1, §2
Whether the mutant antibody in the present disclosure can bind to human or cynomolgus FAP protein stably expressed on the surface of 293T cells was determined by a cell binding assay. […] The cells were washed twice with PBS and then resuspended, and finally, fluorescence signals were detected using the […] (BD Bioscience) flow cytometer. […]

Another data set deals with T2, murine FAP (Mus musculus, UniProt P97321).
T2 sequence (P97321 1-761): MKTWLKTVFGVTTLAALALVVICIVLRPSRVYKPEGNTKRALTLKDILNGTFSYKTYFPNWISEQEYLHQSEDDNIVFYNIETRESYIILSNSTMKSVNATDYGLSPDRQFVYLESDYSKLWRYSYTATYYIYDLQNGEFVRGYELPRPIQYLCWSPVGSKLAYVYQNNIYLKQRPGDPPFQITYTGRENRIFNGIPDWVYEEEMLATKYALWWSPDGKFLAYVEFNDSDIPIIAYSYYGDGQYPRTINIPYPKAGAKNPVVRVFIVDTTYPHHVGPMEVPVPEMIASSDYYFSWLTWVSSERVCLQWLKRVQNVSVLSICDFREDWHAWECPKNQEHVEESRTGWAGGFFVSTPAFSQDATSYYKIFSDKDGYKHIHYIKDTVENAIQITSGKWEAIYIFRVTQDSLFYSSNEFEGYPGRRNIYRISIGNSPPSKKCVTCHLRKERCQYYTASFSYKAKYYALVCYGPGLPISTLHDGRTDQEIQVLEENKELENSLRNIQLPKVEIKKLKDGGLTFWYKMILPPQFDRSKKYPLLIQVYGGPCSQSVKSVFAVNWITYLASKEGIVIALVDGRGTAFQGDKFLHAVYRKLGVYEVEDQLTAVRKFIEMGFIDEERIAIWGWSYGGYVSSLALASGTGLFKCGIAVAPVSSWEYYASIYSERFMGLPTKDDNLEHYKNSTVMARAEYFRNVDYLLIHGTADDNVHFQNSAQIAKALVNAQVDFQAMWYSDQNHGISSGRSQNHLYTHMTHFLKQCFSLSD
The data set is described as follows: Binding to murine FAP.

cynomolgus FAP protein expressed on 293T cells, sequence (as listed by the source): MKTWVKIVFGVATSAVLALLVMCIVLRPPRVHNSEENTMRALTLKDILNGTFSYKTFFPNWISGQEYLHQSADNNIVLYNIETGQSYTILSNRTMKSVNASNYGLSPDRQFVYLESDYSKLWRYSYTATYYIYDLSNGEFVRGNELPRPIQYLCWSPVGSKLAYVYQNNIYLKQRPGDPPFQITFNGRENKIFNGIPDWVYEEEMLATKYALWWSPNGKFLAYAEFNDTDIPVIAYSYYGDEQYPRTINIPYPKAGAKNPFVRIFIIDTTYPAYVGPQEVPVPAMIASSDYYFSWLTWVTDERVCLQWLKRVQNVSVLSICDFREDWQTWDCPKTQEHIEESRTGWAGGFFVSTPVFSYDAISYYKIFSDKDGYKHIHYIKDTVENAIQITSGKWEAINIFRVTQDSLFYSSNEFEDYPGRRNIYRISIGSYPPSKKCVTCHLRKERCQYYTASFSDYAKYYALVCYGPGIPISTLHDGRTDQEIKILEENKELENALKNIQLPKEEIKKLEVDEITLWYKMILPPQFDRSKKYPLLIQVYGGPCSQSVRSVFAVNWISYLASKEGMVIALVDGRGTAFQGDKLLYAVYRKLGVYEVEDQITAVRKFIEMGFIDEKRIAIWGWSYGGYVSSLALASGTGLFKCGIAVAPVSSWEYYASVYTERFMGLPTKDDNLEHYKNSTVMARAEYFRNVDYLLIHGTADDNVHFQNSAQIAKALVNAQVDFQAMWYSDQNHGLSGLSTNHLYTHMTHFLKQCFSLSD

B1: huF19-LG-NGR: mutant of huF19-LG with G56R (Kabat) in heavy chain CDR2; VH SEQ ID NO: 21, VL SEQ ID NO: 15 (antibody, V domains shown)
VH: QVQLVQSGAEVKKPGASVKVSCKASGYTFTEYTIHWVRQATGQGLEWIGGINPNNRIPNYNQKFKGRATMTVGTSISTAYMELSSLRSEDTAVYFCARRRIAYGYDEGHAMDYWGQGTLVTVSS
VL: DIQMTQSPSSLSASVGDRVTITCKSSQSLLYSRNQKNYLAWFQQKPGKAPKLLIFWASTRESGVPSRFTGSGFGTDFTLTISSLQPEDFATYYCQQYFSYPLTFGQGTKLEIK
For B1, the “change in purity by SEC during storage” value in data set [1] (0 to 4 weeks) is “did not exhibit significant changes in purity”. The “Purity by SEC, %” value in data set [1] (0 weeks) is on record as 99.2%; in data set [1] (2 weeks) it was 99.1%; in data set [1] (4 weeks), 99.1%. The “binding to cynomolgus FAP protein expressed on engineered 293T cells (FACS)” value in data set [2] is “can bind to human FAP protein and cynomolgus FAP protein expressed on engineered 293T cells, with the binding capacities comparable to those of the antibody before mutation”. In addition, the “binding to human FAP protein expressed on engineered 293T cells (FACS)” value in data set [3] was “can bind to human FAP protein and cynomolgus FAP protein expressed on engineered 293T cells, with the binding capacities comparable to those of the antibody before mutation”. Besides, in the data set with murine FAP, the “binding to murine protein” value is “cannot bind to murine protein”.

These data come from patent publication US20260265409A1, “ANTIBODY FUSION PROTEIN TARGETING FAP AND TGFbeta, AND USE THEREOF” (NANJING LEADS BIOLABS CO., LTD., priority 2022, published 2026).
